Data taken from US20200392227A1 (LYVGEN BIOPHARMA, published 2020).
Substitutions are numbered along the chain they refer to. Where two headings read alike, the source gives them in different places. Blank lines part the entries; values can stand above or below the binder they belong to.

Legend:
[1] = molecular target: T1, human FcγRI expressed on CHO cells (human, UniProt P12314 16-374); assay: FACS, CHO cells expressing FcγRI
T1 construct: whole, on cells
Method: For FACS analysis of the IgG mutants' binding to different FcγRs, FcγR overexpressing CHO cells were harvested using trypsin-EDTA and were suspended in cold staining buffer (3% BSA in PBS). Test IgG mutants, which were diluted in staining buffer, were added into the cells. The mixture was incubated 4° C. for 2 hours, and then washed twice with cold staining buffer and re-suspended in PE-labeled anti-human IgG followed by incubation at 4° C. for 2 hours. The mixture was washed twice with staining buffer and re-suspended in 2% PFA in PBS for FACS.

[2] = molecular target: T2, human FcγRIIC expressed on CHO cells (human, UniProt P31995 43-323); assay: FACS, CHO cells expressing FcγRIIC
T2 construct: whole, on cells
T2 sequence (looked up): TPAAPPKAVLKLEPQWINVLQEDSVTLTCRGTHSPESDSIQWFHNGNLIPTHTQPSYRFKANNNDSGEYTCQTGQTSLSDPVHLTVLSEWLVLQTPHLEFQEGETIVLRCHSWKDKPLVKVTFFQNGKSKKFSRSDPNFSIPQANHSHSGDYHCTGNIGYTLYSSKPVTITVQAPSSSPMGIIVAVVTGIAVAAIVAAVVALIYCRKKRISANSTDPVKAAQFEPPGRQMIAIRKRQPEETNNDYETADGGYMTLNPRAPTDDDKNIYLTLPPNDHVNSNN

[3] = molecular target: T3, human FcRIIB/C protein (MednaBio, E1034) (human, UniProt P31994 43-217, limits assumed); assay: BLI
T3 construct: Bought as FcRIIB/C; also called FcγRIIB; CD32B
T3 sequence (looked up): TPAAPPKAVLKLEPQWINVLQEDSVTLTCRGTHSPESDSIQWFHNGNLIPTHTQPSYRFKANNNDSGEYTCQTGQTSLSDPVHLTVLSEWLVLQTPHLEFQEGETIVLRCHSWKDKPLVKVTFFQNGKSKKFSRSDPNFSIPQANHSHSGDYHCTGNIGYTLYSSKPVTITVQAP
Outline: (§1)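 Binding was measured by biolayer interferometry on an Octet Red96 System. Commercial human Fc receptor proteins were loaded at 20 μg/mL onto anti-penta-HIS biosensors, which were then dipped into an 8-point 1:3 dilution series of test IgG starting at 300 nM in PBS with 0.1% BSA and 0.02% Tween-20, at pH 7.2 for Fcγ receptors and pH 6 for FcRn. Kd, kon and koff were obtained by global fitting, with data fitted to a 1:1 binding model.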

[4] = molecular target: T4, human FcRIIIB protein (MednaBio, E1037) (human, UniProt O75015 17-200); assay: BLI
T4 construct: Bought; also called FcγRIIIB; FcgRIIIB
T4 sequence (O75015 17-200 limits assumed): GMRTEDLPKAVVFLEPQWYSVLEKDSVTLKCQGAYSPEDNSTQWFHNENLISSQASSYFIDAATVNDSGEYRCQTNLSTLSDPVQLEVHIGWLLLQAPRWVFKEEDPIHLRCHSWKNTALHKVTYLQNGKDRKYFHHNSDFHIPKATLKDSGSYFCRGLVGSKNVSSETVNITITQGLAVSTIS
Outline: as §1

[5] = molecular target: T5, human FcRIIIA-V158 protein (MednaBio, E1035) (human, UniProt P08637 17-208); assay: BLI
T5 construct: Bought; also called FcγRIIIA(V); FcgRIIIA(V)
T5 sequence (P08637 17-208 F176V): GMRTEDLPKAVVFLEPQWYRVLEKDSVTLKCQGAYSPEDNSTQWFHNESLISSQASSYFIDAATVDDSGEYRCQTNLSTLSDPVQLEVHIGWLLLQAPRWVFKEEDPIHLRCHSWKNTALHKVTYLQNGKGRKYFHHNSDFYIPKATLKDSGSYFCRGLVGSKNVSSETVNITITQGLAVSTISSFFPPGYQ
Outline: as §1

[6] = molecular target: T6, human FcRI protein (MednaBio, E1031) (human, UniProt P12314 16-288, limits assumed); assay: BLI
T6 construct: Bought; loaded on anti-penta-HIS biosensors; also called FcγRI
T6 sequence (P12314 16-288 limits assumed): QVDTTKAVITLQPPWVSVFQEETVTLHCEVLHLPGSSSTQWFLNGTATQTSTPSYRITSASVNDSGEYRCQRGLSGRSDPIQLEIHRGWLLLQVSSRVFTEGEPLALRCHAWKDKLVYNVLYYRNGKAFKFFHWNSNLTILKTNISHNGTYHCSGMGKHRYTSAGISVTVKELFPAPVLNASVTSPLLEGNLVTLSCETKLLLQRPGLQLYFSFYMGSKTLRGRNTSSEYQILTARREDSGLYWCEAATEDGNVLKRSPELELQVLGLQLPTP
Outline: as §1

[7] = molecular target: T7, human FcRIIIA-F158 protein (MednaBio, E1036) (human, UniProt P08637 17-208); assay: BLI
T7 construct: Bought; also called FcγRIIIA(F)
T7 sequence (P08637 17-208 limits assumed): as the sequence (P08637 17-208 F176V) above, with V160F counted along it
Outline: as §1

[8] = molecular target: T8, human FcRn protein (MednaBio, E1032) (human, UniProt P55899 24-297; P61769 21-119); assay: BLI
T8 construct: Bought; assays at pH 6
Outline: as §1

[9] = molecular target: T9, human FcRIIA protein (MednaBio, E1033) (human, UniProt P12318 34-218, limits assumed); assay: BLI
T9 construct: Bought; also called FcγRIIA
T9 sequence (looked up): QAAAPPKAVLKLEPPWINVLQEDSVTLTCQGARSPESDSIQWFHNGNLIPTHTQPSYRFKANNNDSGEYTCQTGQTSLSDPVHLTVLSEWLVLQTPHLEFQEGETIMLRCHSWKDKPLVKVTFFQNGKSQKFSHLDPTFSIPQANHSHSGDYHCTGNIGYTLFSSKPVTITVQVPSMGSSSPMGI
Outline: as §1

[10] = molecular target: T3, human FcRIIB/C protein (MednaBio, E1034); assay: BLI; remark: listed apart in the source
Method: (§2) These IgG mutants were tested for binding to a panel of human Fc receptors (FcRs), including FcRn, using the Octet Red96 System (ForteBio, Model #Red96). Human FcR proteins were purchased commercially (FcRn, MednaBio, E1032; FcRI, MednaBio, E1031; FcRIIA, MednaBio, E1033; FcRIIB/C, MednaBio, E1034; FcRIIIA-F158, MednaBio, E1036; FcRIIIA-V158, MednaBio, E1035; FcRIIIB, MednaBio, E1037). All Fey receptor assays were performed at pH 7.2; all FcRn assays were performed at pH 6. The Fey receptors were loaded onto anti-penta-HIS1K (ForteBio, Cat #18-5122) biosensors at a concentration of 20 μg/mL. The loaded biosensors was then be dipped into an 8-point 1:3 dilution series of the test IgG molecules (including controls and the mutants described herein) in PBS with 0.1% BSA, 0.02% Tween-20 (pH 7.2) at a starting concentration of 300 nM. Kinetic analysis was performed using a 1:1 binding model and global fitting.

[11] = molecular target: T4, human FcRIIIB protein (MednaBio, E1037); assay: BLI; remark: listed apart in the source
Method: as §2

[12] = molecular target: T5, human FcRIIIA-V158 protein (MednaBio, …); assay: BLI; remark: listed apart in the source
Method: as §2

[13] = molecular target: T6, human FcRI protein (MednaBio, E1031); assay: BLI; remark: listed apart in the source
Method: as §2

[14] = molecular target: T7, human FcRIIIA-F158 protein (MednaBio, …); assay: BLI; remark: listed apart in the source
Method: as §2

[15] = molecular target: T8, human FcRn protein (MednaBio, E1032); assay: BLI; remark: listed apart in the source
Method: as §2

[16] = molecular target: T9, human FcRIIA protein (MednaBio, E1033); assay: BLI; remark: listed apart in the source
Method: as §2

T1 sequence (P12314 16-374): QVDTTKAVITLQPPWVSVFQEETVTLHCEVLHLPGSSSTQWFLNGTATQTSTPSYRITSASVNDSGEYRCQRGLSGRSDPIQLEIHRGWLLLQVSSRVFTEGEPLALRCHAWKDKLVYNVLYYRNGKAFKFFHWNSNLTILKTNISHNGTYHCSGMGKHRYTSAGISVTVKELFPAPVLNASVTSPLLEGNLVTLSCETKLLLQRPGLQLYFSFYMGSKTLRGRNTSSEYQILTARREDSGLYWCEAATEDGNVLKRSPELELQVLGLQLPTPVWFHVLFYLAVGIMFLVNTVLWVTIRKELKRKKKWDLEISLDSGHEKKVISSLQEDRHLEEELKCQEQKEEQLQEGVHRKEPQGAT

B1: anti-CD137 IgG2 with Fc variant G2m7 (antibody)
heavy: EVQLVQSGAEVKKPGESLRISCKGSGYSFSTYWISWVRQMPGKGLEWMGKIYPGDSYTNYSPSFQGQVTISADKSISTAYLQWSSLKASDTAMYYCARGYGIFDYWGQGTLVTVSSASTKGPSVFPLAPCSRSTSESTAALGCLVKDYFPEPVTVSWNSGALTSGVHTFPAVLQSSGLYSLSSVVTVPSSNFGTQTYTCNVDHKPSNTKVDKTVERKCCVECPPCPAPPVAGPSVFLFPPKPKDTLMISRTPEVTCVVVDVEHEDPEVQFNWYVDGVEVHNAKTKPREEQFNSTFRVVSVLTVVHQDWLNGKEYKCKVSNKGLPAPIEKTISKTKGQPREPQVYTLPPSREEMTKNQVSLTCLVKGFYPSDIAVEWESNGQPENNYKTTPPMLDSDGSFFLYSKLTVDKSRWQQGNVFSCSVMHEALHNHYTQKSLSLSPGK
light: SYELTQPPSVSVSPGQTASITCSGDNIGDQYAHWYQQKPGQSPVLVIYQDKNRPSGIPERFSGSNSGNTATLTISGTQAMDEADYYCATYTGFGSLAVFGGGTKLTVLGQPKAAPSVTLFPPSSEELQANKATLVCLISDFYPGAVTVAWKADSSPVKAGVETTTPSKQSNNKYAASSYLSLTPEQWKSHRSYSCQVTHEGSTVEKTVAPTECS
notes: copies: 2 + 2
binding result [1]: no binding (tested: 10 ug/ml) | binding result [2]: binds | Kd [3]: 170 nM | koff [3]: 0.052 s⁻¹ | kon [3]: 310000 M⁻¹ s⁻¹ | binding result [4]: no binding (tested: 300 nM) | binding result [5]: no binding (tested: 300 nM) | binding result [6]: no binding (tested: 300 nM) | binding result [7]: no binding (tested: 300 nM) | Kd [8]: 5.7 nM | koff [8]: 0.0052 s⁻¹ | kon [8]: 910000 M⁻¹ s⁻¹ | Kd [9]: 120 nM | koff [9]: 0.028 s⁻¹ | kon [9]: 230000 M⁻¹ s⁻¹

B4: anti-CD137 IgG2 with Fc variant G2m9 (antibody)
heavy: B1 heavy with L323F
light: B1 light
notes: copies: 2 + 2
binding result [2]: binds | Kd [3]: 52 nM | koff [3]: 0.005 s⁻¹ | kon [3]: 97000 M⁻¹ s⁻¹ | binding result [4]: no binding (tested: 300 nM) | binding result [5]: no binding (tested: 300 nM) | binding result [6]: no binding (tested: 300 nM) | binding result [7]: no binding (tested: 300 nM) | Kd [8]: 22 nM | koff [8]: 0.0058 s⁻¹ | kon [8]: 270000 M⁻¹ s⁻¹ | Kd [9]: 280 nM | koff [9]: 0.03 s⁻¹ | kon [9]: 110000 M⁻¹ s⁻¹

B5: anti-CD137 IgG4 with Fc variant G4m1 (antibody)
heavy: EVQLVQSGAEVKKPGESLRISCKGSGYSFSTYWISWVRQMPGKGLEWMGKIYPGDSYTNYSPSFQGQVTISADKSISTAYLQWSSLKASDTAMYYCARGYGIFDYWGQGTLVTVSSASTKGPSVFPLAPCSRSTSESTAALGCLVKDYFPEPVTVSWNSGALTSGVHTFPAVLQSSGLYSLSSVVTVPSSSLGTKTYTCNVDHKPSNTKVDKRVESKYGPPCPPCPAPEFLSVFLFPPKPKDTLMISRTPEVTCVVVDVSQEDPEVQFNWYVDGVEVHNAKTKPREEQFNSTYRVVSVLTVLHQDWLNGKEYKCKVSNKGLPSSIEKTISKAKGQPREPQVYTLPPSQEEMTKNQVSLTCLVKGFYPSDIAVEWESNGQPENNYKTTPPVLDSDGSFFLYSRLTVDKSRWQEGNVFSCSVMHEALHNHYTQKSLSLSLGK
light: B1 light
notes: copies: 2 + 2
Kd [10]: 250 nM | koff [10]: 0.11 s⁻¹ | kon [10]: 420000 M⁻¹ s⁻¹ | binding result [11]: no binding (tested: 300 nM) | binding result [12]: no binding (tested: 300 nM) | Kd [13]: 130 nM | koff [13]: 0.097 s⁻¹ | kon [13]: 740000 M⁻¹ s⁻¹ | binding result [14]: no binding (tested: 300 nM) | Kd [15]: 19 nM | koff [15]: 0.013 s⁻¹ | kon [15]: 690000 M⁻¹ s⁻¹ | Kd [16]: 450 nM | koff [16]: 0.11 s⁻¹ | kon [16]: 240000 M⁻¹ s⁻¹

Continued, values first:

binding result [10]: no binding (tested: 300 nM) | binding result [11]: no binding (tested: 300 nM) | binding result [12]: no binding (tested: 300 nM) | binding result [13]: no binding (tested: 300 nM) | binding result [14]: no binding (tested: 300 nM) | Kd [15]: 11 nM | koff [15]: 0.0055 s⁻¹ | kon [15]: 510000 M⁻¹ s⁻¹ | Kd [16]: 83 nM | koff [16]: 0.037 s⁻¹ | kon [16]: 450000 M⁻¹ s⁻¹ | binding result [2]: no binding (tested: 10 ug/ml)
B2: anti-CD137 IgG4 with Fc variant G4m10 (antibody)
heavy: B5 heavy with F230V, L231S, L321F
light: B1 light
notes: copies: 2 + 2

binding result [1]: no binding (tested: 10 ug/ml) | Kd [3]: 500 nM | koff [3]: 0.26 s⁻¹ | kon [3]: 510000 M⁻¹ s⁻¹ | binding result [4]: no binding (tested: 300 nM) | binding result [5]: no binding (tested: 300 nM) | binding result [6]: no binding (tested: 300 nM) | binding result [7]: no binding (tested: 300 nM) | Kd [8]: 6.3 nM | koff [8]: 0.0053 s⁻¹ | kon [8]: 850000 M⁻¹ s⁻¹ | Kd [9]: 93 nM | koff [9]: 0.092 s⁻¹ | kon [9]: 990000 M⁻¹ s⁻¹
B3: anti-CD137 IgG2 with Fc variant G2m8 (antibody)
heavy: B1 heavy with E262S, L323F
light: B1 light
notes: copies: 2 + 2
